In this assay the test system is HCC1806 xenograft tumor. Nature of the assay: HCC1806 xenograft tumor model in nude mice. The class given is in vivo. Conditions: virus intratumoral 1.5×10^10 VP/time/mouse, rIFN intraperitoneal 20 μg/time/mouse, 5 times. Here is the method:
When the experimental nude mice reached 5 weeks old, they were injected with 2×10^6 HCC1806 tumor cells for tumor formation. […] The tumor size was observed and measured every 3 days after administration of oncolytic virus.
Specifically, the triple negative breast cancer cell line HCC1806 xenograft tumor of nude mice with less immune cell infiltration were used for in vivo drug efficacy testing. […] The tumor size was measured every three days.

B1: recombinant interferon protein: consensus interferon rIFN protein; synthetic interferon with roughly the average sequence of human interferon-α subtypes (protein)
chain 1: MALSFSLLMAVLVLSYKSICSLGMCDLPQTHSLGNRRALILLAQMRRISPFSCLKDRHDFGFPQEEFDGNQFQKAQAISVLHEMIQQTFNLFSTKDSSAAWDESLLEKFYTELYQQLNDLEACVIQEVGVEETPLMNVDSILAVKKYFQRITLYLTEKKYSPCAWEVVRAEIMRSFSLSTNLQERLRRKE
chain 2: B1 chain 1
chain 3: B1 chain 1
modifications: consensus interferon coding sequence IFN-1; consensus interferon coding sequence IFN-2; consensus interferon coding sequence IFN-3
For the molecule B1, the tumor-suppressive effect result is on record as “no obvious tumor-suppressive effect”.

For the origin of these results see patent US12319931B2, “Oncolytic virus expressing interferon and application therefor” (SHANGHAI YUANSONG BIOTECHNOLOGY CO. LTD., priority 2018, dated 2025).
